The values below come from PMC3499583.

By Kd is commonly meant the constant that tells how readily two partners part at equilibrium. Broadly, the koff is the first-order rate constant of dissociation. By stoichiometry N is commonly meant the number of molecules, sites or subunits per partner or assembly.

For assay [1], the target named is P. falciparum MTRAP entire ectodomain, biotinylated bait (Cd4d3+4-biotin) (P. falciparum). Kind of assay: SPR; equilibrium (steady state affinity model); biotinylated MTRAP or TSR1+2 captured on a streptavidin-coated chip, serial dilutions of purified Semaphorin-7A injected at 20 µl/min; Biacore T100, 37°C, HBS-EP; reference flow cell with biotinylated rat Cd4d3+4.

For assay [2], the target named is P. falciparum MTRAP TSR1+2 fragment, biotinylated bait (Cd4d3+4-biotin) (P. falciparum). Described as above.
Assay [3] has as its target Human Semaphorin-7A entire ectodomain, biotinylated bait (Cd4d3+4-biotin) (human). Kind of assay: SPR; kinetic (dissociation model fitted to a family of binding curves); biotinylated Semaphorin-7A or its variants captured on a streptavidin-coated chip, serial dilutions of purified MTRAP injected at 100 µl/min; Biacore T100, 37°C, HBS-EP.
The target in assay [4] is Human Semaphorin-7A ectodomain, natural variant R474L, biotinylated bait (human). Described as above.
In assay [5] the target is Human Semaphorin-7A ectodomain, natural variant R460H, biotinylated bait (human). Described as above.
Assay [6] addresses Human Semaphorin-7A ectodomain, natural variant Q457K, biotinylated bait (human). Described as above.
The target of assay [7] is Human Semaphorin-7A ectodomain, natural variant R475T, biotinylated bait (human). Described as above.
Assay [8] deals with Human Semaphorin-7A ectodomain, natural variant E473V, biotinylated bait (human). The description is as above.
Assay [9] deals with Human Semaphorin-7A ectodomain, natural variant S115T, biotinylated bait (human). The assay is described as above.
The target in assay [10] is Human Semaphorin-7A ectodomain, natural variant R207Q, biotinylated bait (human). The assay is described as above.
Assay [11] has as its target Human Semaphorin-7A ectodomain, natural variant Q530P, biotinylated bait (human). The description is as above.
The target in assay [12] is purified monomeric Semaphorin-7A ectodomain (Cd4d3+4-His6) (human). Kind of assay: SEC + other: amino acid analysis; peak fraction of the SEC of the equimolar mixture; amino acid composition compared with theoretical 1:1, 2:1 and 1:2 (Semaphorin-7A:MTRAP).
Assay [13] addresses Semaphorin-7A Sema domain, biotinylated bait (human) (UniProt O75326). The experiment in a line: SPR; Biacore T100; biotinylated Semaphorin-7A ectodomain, PNGase F-treated form, single domains or variants captured on a streptavidin chip, purified monomeric MTRAP injected; reference biotinylated rat Cd4d3+4; 37°C, HBS-EP. A general note: SPR reads the build-up and loss of mass on a sensor chip optically.
Chain of UniProt O75326 (O75326 53-490): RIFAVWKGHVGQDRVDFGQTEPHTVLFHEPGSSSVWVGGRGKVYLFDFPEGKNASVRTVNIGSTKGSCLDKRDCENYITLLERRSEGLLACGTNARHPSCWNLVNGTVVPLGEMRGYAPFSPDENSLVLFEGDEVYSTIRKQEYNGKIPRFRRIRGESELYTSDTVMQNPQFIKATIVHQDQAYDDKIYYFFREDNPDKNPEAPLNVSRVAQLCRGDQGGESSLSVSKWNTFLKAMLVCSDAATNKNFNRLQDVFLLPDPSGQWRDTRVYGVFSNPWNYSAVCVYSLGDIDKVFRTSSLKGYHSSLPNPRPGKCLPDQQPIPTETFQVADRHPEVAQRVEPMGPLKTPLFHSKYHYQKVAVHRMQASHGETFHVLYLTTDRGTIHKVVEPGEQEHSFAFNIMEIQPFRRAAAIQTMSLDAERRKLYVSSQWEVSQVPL

The target in assay [14] is Semaphorin-7A entire ectodomain, biotinylated bait (human). The assay is described as above.
Assay [15] concerns the target PNGase F-treated Semaphorin-7A, biotinylated bait (human). The description is as above.
In assay [16] the target is purified monomeric Semaphorin-7A ectodomain (Cd4d3+4-His6) (human). Kind of assay: SEC; Superdex 200 Tricorn 10/600 in HBS-EP; nickel-purified His-tagged proteins alone and mixed at equimolar concentrations; fractions on SDS-PAGE, Coomassie.
Assay [17] addresses MTRAP TSR1+2 fragment, biotinylated bait (P. falciparum). Kind of assay: SPR; Biacore T100; biotinylated MTRAP or TSR baits captured on a streptavidin chip, serial dilutions of purified Semaphorin-7A injected (20 µl/min for equilibrium); reference biotinylated rat Cd4d3+4; 37°C, HBS-EP.
Assay [18] deals with MTRAP entire ectodomain, biotinylated bait (P. falciparum). Described as above.
Assay [19] has as its target purified monomeric Semaphorin-7A ectodomain (Cd4d3+4-His6) (human). Kind of assay: SEC-MALS; Superdex200 10/30 in 50 mM Tris.HCl pH 7.5, 150 mM NaCl, 0.4 ml/min; Dawn Heleos-II and Optilab-Rex. For orientation: In gel filtration, larger molecules generally elute earlier.

Where “and” joins values, the source holds several entries; their conditions need not be identical. Identical values can stand only once.

With “Human Semaphorin-7A entire ectodomain, soluble monomeric His-tagged (Cd4d3+4-His6), purified (domain or fragment)”, the Kd in [1] is 1070 nM and 850 nM and 1620 nM; in [2], 1940 nM and 1930 nM and 2000 nM.

On to “P. falciparum MTRAP entire ectodomain, monomeric His-tagged, purified (domain or fragment)”, for which the koff in assay [3] was 0.058 s⁻¹ and 0.054 s⁻¹ and 0.056 s⁻¹; in assay [4], 0.046 s⁻¹ and 0.057 s⁻¹ and 0.052 s⁻¹; in assay [5] it was 0.049 s⁻¹ and 0.051 s⁻¹ and 0.05 s⁻¹; in [6] it was 0.053 s⁻¹ and 0.058 s⁻¹ and 0.056 s⁻¹; in [7] it was 0.059 s⁻¹ and 0.053 s⁻¹ and 0.056 s⁻¹; in assay [8], 0.056 s⁻¹ and 0.054 s⁻¹ and 0.055 s⁻¹. Besides, the koff in [9] was 0.053 s⁻¹ and 0.047 s⁻¹ and 0.05 s⁻¹; in [10], 0.054 s⁻¹ and 0.045 s⁻¹ and 0.05 s⁻¹; in assay [11], 0.05 s⁻¹ and 0.055 s⁻¹ and 0.053 s⁻¹.

For “monomeric His-tagged MTRAP ectodomain lacking the Cd4d3+4-tag (domain or fragment)”, the stoichiometry N in assay [12] stood at 1.

In turn, “purified monomeric MTRAP (His-tagged ectodomain, analyte in SPR) (domain or fragment)” showed a Kd in assay [13] of 830 nM. Moreover, the values for the koff in assay [14] and in assay [15] were 0.061 s⁻¹ and 0.063 s⁻¹, respectively.

“purified monomeric Semaphorin-7A ectodomain (Cd4d3+4-His6) (domain or fragment)”: the stoichiometry N in [16] and in assay [19] was 2 each time. In addition, the figures for the Kd in assay [17] and in [18] were 1960 nM and 1180 nM, respectively.
